For series [1], the target named is VosA_(1–190) dead, quadruple mutant of VosA with the mutations K37A, K39A, R41A, and K42A (A. nidulans). The series is described as follows: SEC-MALS; size exclusion chromatography and subsequent mass determination using MALS. In general terms: SEC sorts molecules by how far they enter the pores of the column.
For series [2], the target named is VosA_(1–190), minimal velvet domain of VosA encompassing residues 1–190 (A. nidulans). The series is described as follows: SEC; Superdex 200 (16/60) gel filtration column; elution volumes compared.
Series [3] has the same target. The series is described as follows: SEC-MALS; size exclusion chromatography and subsequent mass determination using MALS.
Series [4] concerns the target T1, VosA full-length (Aspergillus nidulans, UniProt Q5BBX1 1-430).
T1 sequence: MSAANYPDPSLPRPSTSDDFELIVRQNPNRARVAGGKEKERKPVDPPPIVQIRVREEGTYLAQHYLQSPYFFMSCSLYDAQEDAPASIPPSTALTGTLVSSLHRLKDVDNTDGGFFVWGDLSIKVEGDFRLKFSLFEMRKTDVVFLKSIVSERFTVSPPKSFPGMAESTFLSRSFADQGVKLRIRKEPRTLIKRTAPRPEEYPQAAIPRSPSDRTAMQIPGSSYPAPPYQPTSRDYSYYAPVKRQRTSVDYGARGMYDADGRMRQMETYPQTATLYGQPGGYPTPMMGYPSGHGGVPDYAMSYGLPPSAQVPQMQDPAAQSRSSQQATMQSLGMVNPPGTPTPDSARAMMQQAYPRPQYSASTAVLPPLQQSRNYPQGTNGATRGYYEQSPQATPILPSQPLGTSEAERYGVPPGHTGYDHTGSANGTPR
In words: EMSA; EMSA: 10 mM HEPES/NaOH pH 7.4, 150 mM NaCl, ~53 pmol DNA in 10 ul, RT 15 min; DNA:protein molar ratios 1:0.3 to 1:9; 6% PAGE, 0.5% TBE, ethidium bromide. The note with it: protein: recombinant; tags: GST (N-terminal, pGEX-5X-1); chain copies: 2; blunt. In general terms: In EMSA bound probe runs differently from free probe, usually more slowly.

The target in series [5] is T2, VosA_N (Aspergillus nidulans, UniProt Q5BBX1 1-216).
T2 sequence: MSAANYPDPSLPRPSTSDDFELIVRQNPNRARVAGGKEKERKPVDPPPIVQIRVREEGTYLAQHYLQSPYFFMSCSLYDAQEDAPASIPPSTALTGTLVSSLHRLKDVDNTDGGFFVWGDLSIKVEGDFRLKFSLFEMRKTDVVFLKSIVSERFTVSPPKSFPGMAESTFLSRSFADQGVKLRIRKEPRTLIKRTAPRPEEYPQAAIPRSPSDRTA
The description is as above. The note with it: protein: recombinant; tags: GST (N-terminal, pGEX-4T-3); chain copies: 2; blunt.

The target in series [6] is VelB (Aspergillus nidulans, UniProt C8VTS4 1-369). The series is described as above. The note with it: protein: recombinant; tags: His6 (C-terminal); blunt.
VelB, sequence (C8VTS4 whole entry): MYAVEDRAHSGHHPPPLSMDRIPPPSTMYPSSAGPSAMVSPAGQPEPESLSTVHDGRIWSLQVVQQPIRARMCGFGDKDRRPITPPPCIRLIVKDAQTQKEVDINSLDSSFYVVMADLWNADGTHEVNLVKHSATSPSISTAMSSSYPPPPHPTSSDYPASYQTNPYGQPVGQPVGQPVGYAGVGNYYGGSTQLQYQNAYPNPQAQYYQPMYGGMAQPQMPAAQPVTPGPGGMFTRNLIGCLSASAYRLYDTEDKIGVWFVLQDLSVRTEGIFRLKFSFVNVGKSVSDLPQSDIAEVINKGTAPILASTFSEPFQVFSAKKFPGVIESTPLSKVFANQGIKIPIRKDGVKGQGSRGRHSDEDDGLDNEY
The target in series [7] is T3, VosA1-190 (VosA_cryst) (Aspergillus nidulans, UniProt Q5BBX1 1-190).
T3 sequence: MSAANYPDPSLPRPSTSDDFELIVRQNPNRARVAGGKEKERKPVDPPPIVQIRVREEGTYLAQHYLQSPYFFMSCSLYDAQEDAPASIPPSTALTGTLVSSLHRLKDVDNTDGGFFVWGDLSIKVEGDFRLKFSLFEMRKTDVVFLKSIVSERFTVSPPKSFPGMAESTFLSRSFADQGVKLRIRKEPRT
The series is described as follows: EMSA; weaker than VosA_N; EMSA: 10 mM HEPES/NaOH pH 7.4, 150 mM NaCl, ~53 pmol DNA in 10 ul, RT 15 min; DNA:protein molar ratios 1:0.3 to 1:9; 6% PAGE, 0.5% TBE, ethidium bromide. The settings on record: protein: recombinant; tags: Strep-tag (C-terminal); chain copies: 2; blunt.

The target of series [8] is T4, VeA1-224 (Aspergillus nidulans, UniProt C8VTV4 1-224).
T4 sequence: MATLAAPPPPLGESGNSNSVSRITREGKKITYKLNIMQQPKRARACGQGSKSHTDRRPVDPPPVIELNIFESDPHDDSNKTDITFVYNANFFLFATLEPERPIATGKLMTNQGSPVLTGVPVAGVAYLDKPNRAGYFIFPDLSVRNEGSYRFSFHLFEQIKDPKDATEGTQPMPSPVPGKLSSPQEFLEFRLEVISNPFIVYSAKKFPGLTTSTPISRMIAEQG
The series is described as follows: EMSA; binds as well as VosA1-190; EMSA: 10 mM HEPES/NaOH pH 7.4, 150 mM NaCl, ~53 pmol DNA in 10 ul, RT 15 min; DNA:protein molar ratios 1:0.3 to 1:9; 6% PAGE, 0.5% TBE, ethidium bromide. The settings on record: protein: recombinant; tags: Strep-tag (C-terminal); blunt.

The stoichiometry N is a count of units in the complex or per binding partner. For “VosA_(1–190) dead, quadruple mutant of VosA with the mutations K37A, K39A, R41A, and K42A (domain or fragment)”, the stoichiometry N in series [1] is 2.

As to “VosA_(1–190), minimal velvet domain of VosA encompassing residues 1–190 (domain or fragment)”, the stoichiometry N in series [2] and in series [3] was 2 throughout.

B1: brlA 35 bp probe (OHS301/302) (dsDNA)
DNA 1: ATTCGGCGACTAGGATCTTACTGGCCGCGGCCGAG
DNA 2: CTCGGCCGCGGCCAGTAAGATCCTAGTCGCCGAAT
Take B1: the binding result in series [4] is recorded as “binds”; in series [5] it was “binds”; in series [6], “no binding”; in series [7] it was “binds”; in series [8], “binds”.
